Results: paper PMC2756588

Each binder was assayed against T1, Lsb4, P32793 (assay: SPOT array). Settings: median of control spots 397.
T1 sequence (P32793 402-468, looked up): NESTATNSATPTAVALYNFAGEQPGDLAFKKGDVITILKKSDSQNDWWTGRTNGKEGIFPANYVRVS
An SPOT intensity of 8 was found for KNPRRQLQIPRQQPS in this work.
An SPOT intensity of 2 was found for SRYRRPLTLLLLKPF in this work.
An SPOT intensity of 27 was found for LLGRKRPVMERVVDI in this work.

These binders were tested against Bem1-2, P29366 (assay: SPOT array). Settings: median of control spots 4347.
Bem1-2, P29366, sequence (P29366 139-227): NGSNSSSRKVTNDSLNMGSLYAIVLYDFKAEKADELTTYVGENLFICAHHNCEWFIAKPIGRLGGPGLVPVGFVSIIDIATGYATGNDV
An SPOT intensity of 1 was found for KNPRRQLQIPRQQPS in this work.
An SPOT intensity of 10 was found for SRYRRPLTLLLLKPF in this work.
An SPOT intensity of 0 was found for LLGRKRPVMERVVDI in this work.

Each binder was assayed against T2, Lsb1, P53281 (assay: SPOT array). Settings: median of control spots 388.
T2 sequence (P53281 45-122, looked up): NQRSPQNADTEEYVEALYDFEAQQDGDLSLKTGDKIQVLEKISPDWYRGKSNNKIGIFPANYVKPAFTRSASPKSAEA
An SPOT intensity of 216 was found for KNPRRQLQIPRQQPS in this work.
An SPOT intensity of 7 was found for SRYRRPLTLLLLKPF in this work.
An SPOT intensity of 4 was found for LLGRKRPVMERVVDI in this work.

These binders were tested against T3, Fus1, P11710 (assay: SPOT array). Settings: median of control spots 1200.
T3 sequence (P11710 432-512, looked up): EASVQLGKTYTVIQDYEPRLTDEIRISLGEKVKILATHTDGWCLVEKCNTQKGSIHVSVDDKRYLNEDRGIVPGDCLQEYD
An SPOT intensity of 0 was found for KNPRRQLQIPRQQPS in this work.
An SPOT intensity of 15 was found for SRYRRPLTLLLLKPF in this work.
An SPOT intensity of 0 was found for LLGRKRPVMERVVDI in this work.

What follows are binders tested against T4, Pex13, P80667 (assay: SPOT array). Settings: median of control spots 1341.
T4 sequence (P80667 295-386, looked up): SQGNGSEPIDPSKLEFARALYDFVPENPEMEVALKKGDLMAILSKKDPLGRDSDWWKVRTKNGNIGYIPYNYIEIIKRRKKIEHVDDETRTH
An SPOT intensity of 3 was found for KNPRRQLQIPRQQPS in this work.
An SPOT intensity of 16 was found for SRYRRPLTLLLLKPF in this work.
An SPOT intensity of 110 was found for LLGRKRPVMERVVDI in this work.

What follows are binders tested against T5, Abp1, P15891 (assay: SPOT array). Settings: median of control spots 935.
T5 sequence (P15891 535-592, looked up): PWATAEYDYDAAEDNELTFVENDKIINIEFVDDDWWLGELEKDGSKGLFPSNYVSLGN
An SPOT intensity of 92 was found for KNPRRQLQIPRQQPS in this work.
An SPOT intensity of 37 was found for SRYRRPLTLLLLKPF in this work.
An SPOT intensity of 28 was found for LLGRKRPVMERVVDI in this work.

The binders below were run against T6, Cdc25, P04821 (assay: SPOT array). Settings: median of control spots 969.
T6 sequence (P04821 50-136, looked up): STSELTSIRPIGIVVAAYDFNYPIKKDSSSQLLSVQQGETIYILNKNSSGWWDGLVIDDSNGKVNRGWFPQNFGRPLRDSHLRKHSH
An SPOT intensity of 54 was found for KNPRRQLQIPRQQPS in this work.
An SPOT intensity of 236 was found for SRYRRPLTLLLLKPF in this work.
An SPOT intensity of 9 was found for LLGRKRPVMERVVDI in this work.

Each binder was assayed against T7, Bbc1, P47068 (assay: SPOT array). Settings: median of control spots 796.
T7 sequence (P47068 1-78, looked up): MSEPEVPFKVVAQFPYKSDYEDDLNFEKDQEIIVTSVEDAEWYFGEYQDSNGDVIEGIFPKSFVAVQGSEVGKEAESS
An SPOT intensity of 46 was found for KNPRRQLQIPRQQPS in this work.
An SPOT intensity of 140 was found for SRYRRPLTLLLLKPF in this work.
An SPOT intensity of 1 was found for LLGRKRPVMERVVDI in this work.

Each binder was assayed against T8, Hse1, P38753 (assay: SPOT array). Settings: median of control spots 1727.
T8 sequence (P38753 208-285, looked up): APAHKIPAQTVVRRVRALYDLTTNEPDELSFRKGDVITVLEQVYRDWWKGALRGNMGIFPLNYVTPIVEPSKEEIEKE
An SPOT intensity of 3 was found for KNPRRQLQIPRQQPS in this work.
An SPOT intensity of 15 was found for SRYRRPLTLLLLKPF in this work.
An SPOT intensity of 9 was found for LLGRKRPVMERVVDI in this work.

Each binder was assayed against T9, Sla1-2, P32790 (assay: SPOT array). Settings: median of control spots 712.
T9 sequence (P32790 60-140, looked up): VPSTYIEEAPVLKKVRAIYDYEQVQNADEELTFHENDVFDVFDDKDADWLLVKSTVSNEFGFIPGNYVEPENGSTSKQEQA
An SPOT intensity of 0 was found for KNPRRQLQIPRQQPS in this work.
An SPOT intensity of 1 was found for SRYRRPLTLLLLKPF in this work.
An SPOT intensity of 5 was found for LLGRKRPVMERVVDI in this work.

The binders below were run against T10, Cyk3, Q07533 (assay: SPOT array). Settings: median of control spots 1451.
T10 sequence (Q07533 1-83, looked up): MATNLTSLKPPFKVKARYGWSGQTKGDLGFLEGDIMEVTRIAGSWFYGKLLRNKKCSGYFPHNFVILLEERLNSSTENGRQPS
An SPOT intensity of 0 was found for KNPRRQLQIPRQQPS in this work.
An SPOT intensity of 3 was found for SRYRRPLTLLLLKPF in this work.
An SPOT intensity of 0 was found for LLGRKRPVMERVVDI in this work.

The binders below were run against T11, Myo5, Q04439 (assay: SPOT array). Settings: median of control spots 471.
T11 sequence (Q04439 1072-1160, looked up): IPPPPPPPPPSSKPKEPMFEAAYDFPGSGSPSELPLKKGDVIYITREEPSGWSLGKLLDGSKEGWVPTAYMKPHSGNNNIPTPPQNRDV
An SPOT intensity of 1 was found for KNPRRQLQIPRQQPS in this work.
An SPOT intensity of 0 was found for SRYRRPLTLLLLKPF in this work.
An SPOT intensity of 6 was found for LLGRKRPVMERVVDI in this work.

The binders below were run against T12, Bzz1-2, P38822 (assay: SPOT array). Settings: median of control spots 4538.
T12 sequence (P38822 568-633, looked up): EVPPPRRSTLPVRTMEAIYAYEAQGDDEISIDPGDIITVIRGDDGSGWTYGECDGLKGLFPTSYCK
An SPOT intensity of 2 was found for KNPRRQLQIPRQQPS in this work.
An SPOT intensity of 4 was found for SRYRRPLTLLLLKPF in this work.
An SPOT intensity of 4 was found for LLGRKRPVMERVVDI in this work.

Each binder was assayed against Myo3, P36006 (assay: SPOT array). Settings: median of control spots 468.
An SPOT intensity of 4 was found for KNPRRQLQIPRQQPS in this work.
An SPOT intensity of 8 was found for SRYRRPLTLLLLKPF in this work.
An SPOT intensity of 10 was found for LLGRKRPVMERVVDI in this work.

The binders below were run against Sho1, P40073 (assay: SPOT array). Settings: median of control spots 1148.
Sho1, P40073, sequence (P40073 287-367): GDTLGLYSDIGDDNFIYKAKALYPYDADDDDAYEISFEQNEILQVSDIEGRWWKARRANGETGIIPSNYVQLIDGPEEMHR
An SPOT intensity of 99 was found for KNPRRQLQIPRQQPS in this work.
An SPOT intensity of 78 was found for SRYRRPLTLLLLKPF in this work.
An SPOT intensity of 74 was found for LLGRKRPVMERVVDI in this work.

The binders below were run against T13, Sla1-3, P32790 (assay: SPOT array). Settings: median of control spots 5475.
T13 sequence (P32790 344-424, looked up): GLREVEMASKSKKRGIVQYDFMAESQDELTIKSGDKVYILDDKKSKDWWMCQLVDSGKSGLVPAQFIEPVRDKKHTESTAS
An SPOT intensity of 3 was found for KNPRRQLQIPRQQPS in this work.
An SPOT intensity of 15 was found for SRYRRPLTLLLLKPF in this work.
An SPOT intensity of 4 was found for LLGRKRPVMERVVDI in this work.

The binders below were run against T14, Bzz1-1, P38822 (assay: SPOT array). Settings: median of control spots 4446.
T14 sequence (P38822 478-572, looked up): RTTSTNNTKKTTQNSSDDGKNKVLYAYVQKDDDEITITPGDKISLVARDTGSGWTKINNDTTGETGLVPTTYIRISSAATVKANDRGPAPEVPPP
An SPOT intensity of 2 was found for KNPRRQLQIPRQQPS in this work.
An SPOT intensity of 0 was found for SRYRRPLTLLLLKPF in this work.
An SPOT intensity of 0 was found for LLGRKRPVMERVVDI in this work.

These binders were tested against T15, Bud14, P27637 (assay: SPOT array). Settings: median of control spots 956.
T15 sequence (P27637 247-328, looked up): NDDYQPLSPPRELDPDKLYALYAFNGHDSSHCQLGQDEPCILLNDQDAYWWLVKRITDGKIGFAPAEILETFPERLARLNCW
An SPOT intensity of 6 was found for KNPRRQLQIPRQQPS in this work.
An SPOT intensity of 15 was found for SRYRRPLTLLLLKPF in this work.
An SPOT intensity of 3 was found for LLGRKRPVMERVVDI in this work.

What follows are binders tested against Bem1-1, P29366 (assay: SPOT array). Settings: median of control spots 4282.
Bem1-1, P29366, sequence (P29366 55-141): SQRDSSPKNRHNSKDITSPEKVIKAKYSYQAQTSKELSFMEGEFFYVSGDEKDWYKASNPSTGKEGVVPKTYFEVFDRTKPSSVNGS
An SPOT intensity of 2 was found for KNPRRQLQIPRQQPS in this work.
An SPOT intensity of 0 was found for SRYRRPLTLLLLKPF in this work.
An SPOT intensity of 0 was found for LLGRKRPVMERVVDI in this work.

These binders were tested against GST (assay: SPOT array). Settings: median of control spots 978.
An SPOT intensity of 4 was found for KNPRRQLQIPRQQPS in this work.
An SPOT intensity of 0 was found for SRYRRPLTLLLLKPF in this work.
An SPOT intensity of 0 was found for LLGRKRPVMERVVDI in this work.

What follows are binders tested against T16, Hof1, Q05080 (assay: SPOT array). Settings: median of control spots 4086.
T16 sequence (Q05080 590-669, looked up): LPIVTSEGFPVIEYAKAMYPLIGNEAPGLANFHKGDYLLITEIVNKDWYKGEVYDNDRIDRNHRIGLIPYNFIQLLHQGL
An SPOT intensity of 2 was found for KNPRRQLQIPRQQPS in this work.
An SPOT intensity of 15 was found for SRYRRPLTLLLLKPF in this work.
An SPOT intensity of 0 was found for LLGRKRPVMERVVDI in this work.

The binders below were run against T17, Pin3, Q06449 (assay: SPOT array). Settings: median of control spots 2171.
T17 sequence (Q06449 53-122, looked up): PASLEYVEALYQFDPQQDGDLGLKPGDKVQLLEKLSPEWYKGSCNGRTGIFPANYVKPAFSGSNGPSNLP
An SPOT intensity of 3 was found for KNPRRQLQIPRQQPS in this work.
An SPOT intensity of 2 was found for SRYRRPLTLLLLKPF in this work.
An SPOT intensity of 61 was found for LLGRKRPVMERVVDI in this work.

What follows are binders tested against T18, Boi1, P38041 (assay: SPOT array). Settings: median of control spots 1162.
T18 sequence (P38041 1-86, looked up): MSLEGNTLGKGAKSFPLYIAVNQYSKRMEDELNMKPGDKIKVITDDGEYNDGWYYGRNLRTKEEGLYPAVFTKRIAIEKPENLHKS
An SPOT intensity of 0 was found for KNPRRQLQIPRQQPS in this work.
An SPOT intensity of 16 was found for SRYRRPLTLLLLKPF in this work.
An SPOT intensity of 0 was found for LLGRKRPVMERVVDI in this work.

These binders were tested against T19, Lsb3, P43603 (assay: SPOT array). Settings: median of control spots 406.
T19 sequence (P43603 385-451, looked up): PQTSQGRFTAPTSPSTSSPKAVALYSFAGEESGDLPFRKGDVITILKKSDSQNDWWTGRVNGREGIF
An SPOT intensity of 3 was found for KNPRRQLQIPRQQPS in this work.
An SPOT intensity of 2 was found for SRYRRPLTLLLLKPF in this work.
An SPOT intensity of 4 was found for LLGRKRPVMERVVDI in this work.

What follows are binders tested against T20, Nbp2, Q12163 (assay: SPOT array). Settings: median of control spots 357.
T20 sequence (Q12163 103-180, looked up): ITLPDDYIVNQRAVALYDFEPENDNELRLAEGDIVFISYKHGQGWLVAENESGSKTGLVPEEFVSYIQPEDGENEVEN
An SPOT intensity of 0 was found for KNPRRQLQIPRQQPS in this work.
An SPOT intensity of 28 was found for SRYRRPLTLLLLKPF in this work.
An SPOT intensity of 0 was found for LLGRKRPVMERVVDI in this work.

Each binder was assayed against Rvs167, P39743 (assay: SPOT array). Settings: median of control spots 2707.
Rvs167, P39743, sequence (P39743 419-482): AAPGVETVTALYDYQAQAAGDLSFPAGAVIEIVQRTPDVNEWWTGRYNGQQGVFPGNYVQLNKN
An SPOT intensity of 2 was found for KNPRRQLQIPRQQPS in this work.
An SPOT intensity of 7 was found for SRYRRPLTLLLLKPF in this work.
An SPOT intensity of 5 was found for LLGRKRPVMERVVDI in this work.

What follows are binders tested against T21, Boi2, P39969 (assay: SPOT array). Settings: median of control spots 1161.
T21 sequence (P39969 32-116, looked up): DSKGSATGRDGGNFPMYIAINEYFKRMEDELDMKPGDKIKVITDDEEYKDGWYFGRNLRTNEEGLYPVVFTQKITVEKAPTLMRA
An SPOT intensity of 0 was found for KNPRRQLQIPRQQPS in this work.
An SPOT intensity of 0 was found for SRYRRPLTLLLLKPF in this work.
An SPOT intensity of 1 was found for LLGRKRPVMERVVDI in this work.
